Measured values from patent US7033991.
Read-outs that look alike come from different tables or passages of the source. No end group written: not given here.

Columns and labels:
Details in all cases: modification not given
[1] = target: T1, Furin (recombinant, truncated) (mouse), P23188
T1 chain: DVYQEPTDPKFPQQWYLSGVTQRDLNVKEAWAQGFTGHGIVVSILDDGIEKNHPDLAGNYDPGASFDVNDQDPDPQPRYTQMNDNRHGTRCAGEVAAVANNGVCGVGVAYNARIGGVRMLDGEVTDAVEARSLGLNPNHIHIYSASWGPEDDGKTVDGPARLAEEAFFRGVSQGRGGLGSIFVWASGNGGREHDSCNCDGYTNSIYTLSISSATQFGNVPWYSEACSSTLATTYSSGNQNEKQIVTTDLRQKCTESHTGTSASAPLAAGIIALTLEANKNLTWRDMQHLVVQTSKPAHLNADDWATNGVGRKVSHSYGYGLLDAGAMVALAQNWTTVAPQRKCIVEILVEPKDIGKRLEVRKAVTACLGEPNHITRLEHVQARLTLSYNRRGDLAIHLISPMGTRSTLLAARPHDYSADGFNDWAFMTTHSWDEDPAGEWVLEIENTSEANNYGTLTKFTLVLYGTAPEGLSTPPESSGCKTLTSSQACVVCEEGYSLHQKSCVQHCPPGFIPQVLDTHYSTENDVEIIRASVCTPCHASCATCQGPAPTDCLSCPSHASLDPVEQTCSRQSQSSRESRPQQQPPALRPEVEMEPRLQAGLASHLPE

PC2, P16519 [2] = target: T2, PC2, P16519
T2 chain: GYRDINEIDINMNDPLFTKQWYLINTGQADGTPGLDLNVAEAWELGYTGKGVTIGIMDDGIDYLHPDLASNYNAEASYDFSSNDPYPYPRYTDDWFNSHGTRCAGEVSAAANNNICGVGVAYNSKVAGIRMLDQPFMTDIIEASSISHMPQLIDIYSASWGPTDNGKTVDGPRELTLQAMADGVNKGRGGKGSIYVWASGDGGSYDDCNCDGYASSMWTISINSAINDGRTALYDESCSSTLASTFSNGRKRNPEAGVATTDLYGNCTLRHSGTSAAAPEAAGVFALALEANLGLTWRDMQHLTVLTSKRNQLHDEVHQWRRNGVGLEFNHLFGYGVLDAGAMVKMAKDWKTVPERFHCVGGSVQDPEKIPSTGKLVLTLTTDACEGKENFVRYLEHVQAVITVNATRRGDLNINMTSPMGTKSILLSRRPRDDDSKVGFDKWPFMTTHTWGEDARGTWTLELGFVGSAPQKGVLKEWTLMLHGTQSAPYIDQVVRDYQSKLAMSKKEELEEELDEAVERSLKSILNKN

[3] = target: Furin (literature), P09958
Furin (literature), P09958, sequence (P09958 108-715): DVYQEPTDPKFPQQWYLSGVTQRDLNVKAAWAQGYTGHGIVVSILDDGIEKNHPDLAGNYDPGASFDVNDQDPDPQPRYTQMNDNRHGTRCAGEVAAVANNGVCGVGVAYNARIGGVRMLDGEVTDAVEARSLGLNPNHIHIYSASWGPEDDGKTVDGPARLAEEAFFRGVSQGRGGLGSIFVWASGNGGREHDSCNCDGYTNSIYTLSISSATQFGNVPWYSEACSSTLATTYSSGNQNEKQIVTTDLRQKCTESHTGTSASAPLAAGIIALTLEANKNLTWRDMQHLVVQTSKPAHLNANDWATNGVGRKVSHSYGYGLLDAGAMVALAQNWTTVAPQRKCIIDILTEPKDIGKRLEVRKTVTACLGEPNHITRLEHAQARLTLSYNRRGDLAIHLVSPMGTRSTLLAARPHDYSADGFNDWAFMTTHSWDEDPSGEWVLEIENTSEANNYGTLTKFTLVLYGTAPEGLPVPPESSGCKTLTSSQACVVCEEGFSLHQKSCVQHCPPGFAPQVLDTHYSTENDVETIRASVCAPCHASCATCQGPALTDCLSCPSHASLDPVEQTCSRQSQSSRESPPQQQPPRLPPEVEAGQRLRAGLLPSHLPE

PC7, Q16549 = target: T3, PC7, Q16549
T3 chain: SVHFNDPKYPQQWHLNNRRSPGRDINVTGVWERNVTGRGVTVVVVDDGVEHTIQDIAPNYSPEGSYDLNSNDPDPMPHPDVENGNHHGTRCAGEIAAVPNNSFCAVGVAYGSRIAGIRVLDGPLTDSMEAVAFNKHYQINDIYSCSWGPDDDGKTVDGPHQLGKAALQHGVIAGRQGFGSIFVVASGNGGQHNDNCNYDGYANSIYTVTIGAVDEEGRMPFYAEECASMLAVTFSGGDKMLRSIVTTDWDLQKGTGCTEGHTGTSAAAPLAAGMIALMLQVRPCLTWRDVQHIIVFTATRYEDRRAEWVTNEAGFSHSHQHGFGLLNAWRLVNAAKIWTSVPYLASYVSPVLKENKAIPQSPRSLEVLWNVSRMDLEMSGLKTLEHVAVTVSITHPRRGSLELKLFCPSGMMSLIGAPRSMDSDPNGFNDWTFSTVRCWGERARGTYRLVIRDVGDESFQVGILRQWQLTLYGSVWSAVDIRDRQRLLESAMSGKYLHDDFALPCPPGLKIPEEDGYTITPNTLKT

PC2, P16519 [4] = target: T2, PC2, P16519
[5] = target: T1, Furin (recombinant, truncated) (mouse), …
PC2, P16519 [6] = target: T2, PC2, P16519
[7] = target: T1, Furin (recombinant, truncated) (mouse), …
PC2, P16519 [8] = target: T2, PC2, P16519
[9] = target: T1, Furin (recombinant, truncated) (mouse), …
[10] = target: T1, Furin (recombinant, truncated) (mouse), …
PACE4, P29122 [11] = target: T4, PACE4, P29122
T4 chain: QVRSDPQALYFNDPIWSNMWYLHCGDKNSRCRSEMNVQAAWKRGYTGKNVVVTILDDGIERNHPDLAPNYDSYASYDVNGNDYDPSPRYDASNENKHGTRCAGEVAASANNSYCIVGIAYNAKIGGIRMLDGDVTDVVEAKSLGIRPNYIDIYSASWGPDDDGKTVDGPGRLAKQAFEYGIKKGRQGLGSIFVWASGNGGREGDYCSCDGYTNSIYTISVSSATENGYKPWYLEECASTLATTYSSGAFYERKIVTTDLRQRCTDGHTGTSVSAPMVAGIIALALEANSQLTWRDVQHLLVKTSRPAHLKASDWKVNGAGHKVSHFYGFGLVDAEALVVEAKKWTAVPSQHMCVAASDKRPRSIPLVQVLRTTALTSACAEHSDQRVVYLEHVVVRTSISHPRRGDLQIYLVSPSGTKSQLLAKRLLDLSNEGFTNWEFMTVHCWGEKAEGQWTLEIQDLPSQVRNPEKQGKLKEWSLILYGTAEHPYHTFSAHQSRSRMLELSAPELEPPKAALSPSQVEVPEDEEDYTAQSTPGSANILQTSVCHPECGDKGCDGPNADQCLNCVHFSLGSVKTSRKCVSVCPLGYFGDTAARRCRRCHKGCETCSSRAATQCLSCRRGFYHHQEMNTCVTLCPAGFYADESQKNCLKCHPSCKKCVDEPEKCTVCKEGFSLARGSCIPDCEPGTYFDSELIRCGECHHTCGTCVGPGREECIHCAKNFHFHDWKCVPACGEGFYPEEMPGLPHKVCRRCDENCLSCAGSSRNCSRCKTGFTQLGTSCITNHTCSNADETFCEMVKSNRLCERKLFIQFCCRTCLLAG

PC1, P29120 [12] = target: T5, PC1, P29120
T5 chain: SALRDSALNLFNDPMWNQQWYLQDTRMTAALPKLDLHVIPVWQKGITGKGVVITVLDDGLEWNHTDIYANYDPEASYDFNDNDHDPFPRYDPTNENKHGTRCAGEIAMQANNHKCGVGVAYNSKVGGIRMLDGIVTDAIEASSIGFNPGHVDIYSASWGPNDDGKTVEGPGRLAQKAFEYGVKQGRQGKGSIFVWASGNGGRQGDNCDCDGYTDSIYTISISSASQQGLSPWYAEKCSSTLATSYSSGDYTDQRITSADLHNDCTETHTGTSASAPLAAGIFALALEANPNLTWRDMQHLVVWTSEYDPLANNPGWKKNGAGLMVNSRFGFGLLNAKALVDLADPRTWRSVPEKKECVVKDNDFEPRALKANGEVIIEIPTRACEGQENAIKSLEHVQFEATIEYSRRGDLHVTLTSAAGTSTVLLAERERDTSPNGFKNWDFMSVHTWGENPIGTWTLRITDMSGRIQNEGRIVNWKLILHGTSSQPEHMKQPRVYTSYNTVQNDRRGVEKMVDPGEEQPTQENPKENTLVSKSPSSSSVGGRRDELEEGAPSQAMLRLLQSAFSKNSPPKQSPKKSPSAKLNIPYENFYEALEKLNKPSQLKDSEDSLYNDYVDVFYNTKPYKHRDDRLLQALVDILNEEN

[13] = target: T1, Furin (recombinant, truncated) (mouse), …
PC2, P16519 [14] = target: T2, PC2, P16519
PC2, P16519 [15] = target: T2, PC2, P16519
[16] = target: T1, Furin (recombinant, truncated) (mouse), …
PC2, P16519 [17] = target: T2, PC2, P16519
[18] = target: T1, Furin (recombinant, truncated) (mouse), …
[19] = target: T1, Furin (recombinant, truncated) (mouse), …
PACE4, P29122 [20] = target: T4, PACE4, P29122
PC1, P29120 [21] = target: T5, PC1, P29120
[22] = target: T1, Furin (recombinant, truncated) (mouse), …
PACE4, P29122 [23] = target: T4, PACE4, P29122
PC1, P29120 [24] = target: T5, PC1, P29120

Ac-LLRVKR [Ac-LLRVKR]
Ki [1]: 3500 nM | Ki (PC2, P16519 [2]): 1300 nM

EQRLLKRAKR [PC7 propeptide fragment]
Ki [3]: 80 nM | Ki (PC7, Q16549): 6 nM

Ac-RRKRRR-NH2 [Ac-RRKRRR-NH2]
Ki (PC2, P16519 [4]): 461000 nM | Ki [5]: 1300 nM

Ac-RHKRRR-NH2 [Ac-RHKRRR-NH2]
Ki (PC2, P16519 [6]): 152000 nM | Ki [7]: 3400 nM

Ac-KHKRRR-NH2 [Ac-KHKRRR-NH2]
Ki (PC2, P16519 [8]): 280000 nM | Ki [9]: 5200 nM

RRRRR [Penta-L-arginine]
Ki [10]: 990 nM | Ki (PACE4, P29122 [11]): 980 nM | Ki (PC1, P29120 [12]): 14000 nM

Ac-LLRVKR-NH2 [Ac-LLRVKR-NH2]
Ki [13]: 3400 nM | Ki (PC2, P16519 [14]): 1000 nM

Ac-KRKRRR-NH2 [Ac-KRKRRR-NH2]
Ki (PC2, P16519 [15]): 391000 nM | Ki [16]: 1600 nM

Ac-HRKRRR-NH2 [Ac-HRKRRR-NH2]
Ki (PC2, P16519 [17]): 309000 nM | Ki [18]: 2100 nM

RRRRRRRRR [Nona-L-arginine]
Ki [19]: 42 nM | Ki (PACE4, P29122 [20]): 110 nM | Ki (PC1, P29120 [21]): 12000 nM

RRRRRRRR [Octa-L-arginine]
Ki [22]: 61 nM | Ki (PACE4, P29122 [23]): 150 nM | Ki (PC1, P29120 [24]): 5100 nM
